Experiments:
Experiment in all cases: co-IP
[1] = molecular target: Cyclin H (human (endogenous in 293T and HFF)) (UniProt P51946)
[2] = molecular target: Cyclin T1 (human (endogenous in 293T and HFF)) (UniProt O60563)
[3] = molecular target: Cyclin B1 (human (endogenous in 293T and HFF)) (UniProt P14635)
Cyclin B1 (human (endogenous in 293T and HFF)), sequence (P14635 whole entry): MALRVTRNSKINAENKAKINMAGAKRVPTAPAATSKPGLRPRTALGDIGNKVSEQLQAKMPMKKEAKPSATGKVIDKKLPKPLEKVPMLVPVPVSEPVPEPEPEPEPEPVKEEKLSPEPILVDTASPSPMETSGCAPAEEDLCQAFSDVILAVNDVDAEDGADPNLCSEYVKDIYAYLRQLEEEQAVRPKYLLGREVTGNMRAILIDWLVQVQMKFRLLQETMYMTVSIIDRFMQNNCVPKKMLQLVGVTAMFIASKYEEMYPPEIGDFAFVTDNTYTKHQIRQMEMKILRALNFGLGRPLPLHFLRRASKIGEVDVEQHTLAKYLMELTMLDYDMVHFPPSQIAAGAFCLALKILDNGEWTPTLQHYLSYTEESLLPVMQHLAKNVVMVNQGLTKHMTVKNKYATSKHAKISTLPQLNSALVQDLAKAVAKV

Cyclin T1 (human (endogenous in 293T and HFF)), sequence (O60563 whole entry): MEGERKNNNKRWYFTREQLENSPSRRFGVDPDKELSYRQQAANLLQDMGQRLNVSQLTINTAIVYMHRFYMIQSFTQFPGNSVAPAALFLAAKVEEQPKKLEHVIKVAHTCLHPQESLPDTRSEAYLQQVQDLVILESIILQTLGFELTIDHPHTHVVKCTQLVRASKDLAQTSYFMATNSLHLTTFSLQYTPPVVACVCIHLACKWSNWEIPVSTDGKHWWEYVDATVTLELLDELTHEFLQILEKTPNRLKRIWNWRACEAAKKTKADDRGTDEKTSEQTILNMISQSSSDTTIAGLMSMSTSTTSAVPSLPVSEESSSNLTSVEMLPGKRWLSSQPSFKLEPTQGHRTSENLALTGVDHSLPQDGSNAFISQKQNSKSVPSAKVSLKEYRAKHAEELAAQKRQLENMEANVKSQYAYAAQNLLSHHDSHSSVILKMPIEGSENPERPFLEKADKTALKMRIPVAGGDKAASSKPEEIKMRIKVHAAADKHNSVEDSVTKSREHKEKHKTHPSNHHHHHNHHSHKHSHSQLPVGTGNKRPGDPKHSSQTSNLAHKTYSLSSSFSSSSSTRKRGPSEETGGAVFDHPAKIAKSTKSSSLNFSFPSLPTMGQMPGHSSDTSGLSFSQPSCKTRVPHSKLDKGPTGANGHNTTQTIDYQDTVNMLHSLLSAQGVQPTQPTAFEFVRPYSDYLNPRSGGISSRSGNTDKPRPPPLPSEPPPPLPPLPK
Cyclin H (human (endogenous in 293T and HFF)), sequence (P51946 whole entry): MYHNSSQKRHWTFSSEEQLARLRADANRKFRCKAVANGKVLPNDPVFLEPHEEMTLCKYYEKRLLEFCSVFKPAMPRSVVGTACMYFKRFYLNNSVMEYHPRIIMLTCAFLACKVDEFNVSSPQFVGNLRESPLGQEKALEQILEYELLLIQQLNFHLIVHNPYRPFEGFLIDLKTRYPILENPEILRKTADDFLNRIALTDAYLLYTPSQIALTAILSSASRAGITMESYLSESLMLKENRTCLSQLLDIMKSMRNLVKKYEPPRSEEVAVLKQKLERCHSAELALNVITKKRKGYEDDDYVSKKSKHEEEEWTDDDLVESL

Q: What does the source list for “HCMV protein kinase pUL97, Flag-tagged (pUL97-Flag) (from UniProt P16788 1-707) (natural protein)”?
A: pUL97 co-IP Western blot signal relative to cyclin B1 [1]: 4%; pUL97 co-IP Western blot signal relative to cyclin B1 [2]: 9%

Q: Which results are given for “Protein kinase pUL97 of HCMV AD169, in infected cells (natural protein)”?
A: pUL97 co-IP Western blot signal relative to cyclin B1 [1]: 160%; pUL97 co-IP Western blot signal relative to cyclin B1 [3]: 100%; pUL97 co-IP Western blot signal relative to cyclin B1 [2]: 77%

Q: How did the pUL97 co-IP Western blot signal relative to cyclin B1 [2] turn out when “pUL97 stably expressed in transduced HFFs (from UniProt P16788 1-707) (natural protein)” was run?
A: 42%
